Data as given in patent publication US9540424B2, “Serum albumin binding molecules” (BRISTOL-MYERS SQUIBB COMPANY, priority 2010, dated 2017).

Experiments:
diabetic ob/ob mice = assay: Plasma glucose lowering in diabetic ob/ob mice, 7 days daily s.c.; type: in vivo, mouse; settings: day 7; for lowering of plasma glucose compared to the PBS vehicle control: SABA1-FGF21v1 1.0 mg/kg, His-tagged FGF21 0.3 mg/kg s.c. daily; for magnitude of glucose lowering: […] hours post dose
Description: (§1) Thus, monitoring plasma glucose levels in diabetic ob/ob mice represents one way that the functional activity of the FGF21-SABA fusion proteins can be assessed. Beginning at 8 weeks of age, diabetic ob/ob mice received daily subcutaneous doses for 7 days (n=8 per group). All protocols were approved by the BMS ACUC committee. Fed glucose levels were examined both 24 hr and 3 hr post-dose on day 7 beginning at 8:00 AM. His-tagged FGF21 and SABA1-FGF21v1 were formulated in PBS and dosed at 0.3 mg/kg, and 1.0 mg/kg. respectively.
(§2) To evaluate the efficacy of SABA1-FGF21v1 bound to human albumin, the fusion protein (1 mg/kg) was incubated with a molar excess of human serum albumin (6 mg/kg) and the mixture was injected in an additional group (q.d. s.c. for 7 days). Human serum albumin (6 mg/kg) was used as an additional control group.

[1] = Plasma exposure in the ob/ob mouse efficacy study; type: in vivo, ob/ob mice; settings: His6-tagged FGF21 0.3 mg/kg, SABA1-FGF21v1 1 mg/kg, without HSA; for Plasma Concentration: 3 hours post dose; for Plasma Concentration (ng/ml): […] hours post dose
Description: as §1, §2
The exposure of SABA1-FGF21v1 is greater in the presence of human serum albumin than in its absence.
(§3) Various in vivo studies were conducted in mice and monkeys to characterize the pharmacokinetics of His-tagged FGF21 and SABA1-FGF21v1. An ELISA-based ligand binding assay was used to measure the His-tagged FGF21 and SABA1-FGF21v1 in all mouse and monkey plasma samples.

[2] = system: parental HEK cells, which do not express β-klotho; assay: pERK 1/2 specificity assay in parental HEK cells; type: cell-based, human
Description: FGF1 was used as a positive control in those experiments.

[3] = system: HEK cells stably expressing human β-klotho; assay: HEK β-Klotho pERK 1/2 assay; type: cell-based; settings: for Efficacy (%): % of His6-tagged FGF21 maximal activity; for activity in HEK β-klotho stable cells (specificity experiment): same dilutions as in parental HEK cells
Description: FGF21 induces ERK phosphorylation in the presence of β-klotho. Accordingly, the present HEK-β-klotho assay system was constructed to examine the functional activity of the FGF21-SABA fusions in vitro. Specifically, in vitro activity, potency (EC50) and efficacy (as a percentage of maximal activity observed from an FGF21 molecule that is not fused to a SABA), were determined for the SABA1-FGF21v1 (SEQ ID NO: 132) fusion protein, as measured in the HEK β-Klotho expressing stable cell pERK 1/2 assay using the non-fused His-tagged FGF21 (“FGFv1”; SEQ ID NO: 125) as a comparator.
A HEK cell line stably expressing human β-klotho was constructed. The human β-klotho construct encoded the full length protein under the control of a CMV promoter with a C-terminal FLAG tag. HEK 293 cells were transfected with the linearized cDNA using Lipofectamine 2000 (Invitrogen catalog #11668027) following the manufactures protocol using standard techniques. Positive clones were isolated after 14 days of selection in 600 ug/ml (Invitrogen catalog #10131) of geneticin in Dulbecco's Modified Eagle Medium with high glucose containing L-Glutamine, Hepes (Invitrogen catalog #12430054) and 10% FBS (HyClone catalog # SH30071). Positive stable clones were further characterized by Western Blot analysis and p-ERK activation by AlphaScreen (Perkin Elmer catalog # TGRES50K) analysis.
HEK cells stably expressing human β-klotho were plated at 20,000 cells/well in 96 well tissue culture plates in DMEM high glucose media (Gibco) containing 10% (v/v) FBS (Hyclone) and 600 μg/ml G418 (Gibco). The following day, the media was removed and replaced with DMEM high glucose media without serum and the cells were incubated overnight. The morning of the third day the serum free media was removed and the cells were incubated for a total of seven minutes with dilutions of the proteins made in PBS containing 3% (w/v) fatty acid free human serum albumin. Dilutions were tested in triplicate, one well on each of three plates. At the end of the seven minute incubation, the protein dilutions were removed and 100 μl of 1x AlphaScreen lysis buffer (Perkin-Elmer) was added per well and allowed to incubate with shaking for approximately 10-15 minutes. The plates containing the cellular lysates were frozen at −80° C. for at least 30 minutes or until ready to assay. Four μl from each well of thawed cell lysate was analyzed for pERK 1/2 using the Surefire AlphaScreen pERK 1/2 kit (Perkin Elmer) using 384 well white Proxiplates (Perkin Elmer) following the manufacturer's directions. Plates were incubated at room temperature for two hours in the dark and then read on an Envision 2103 Multiplate reader (Perkin Elmer). Data were analyzed using Graph Pad Prism software using a non-linear regression analysis.

[4] = Pharmacokinetics of His-tagged FGF21 and SABA-FGF21 fusions in monkeys; type: in vivo, cynomolgus monkeys; settings: for CL (total body plasma clearance, CLTp) / T½ (terminal half-life) / Vdss (steady-state volume of distribution, Vss) / absolute subcutaneous bioavailability / apparent subcutaneous terminal half-life (T1/2): monkeys; for CL (total body plasma clearance, CLTp) / T½ (terminal half-life) / Vdss (steady-state volume of distribution, Vss): intravenous, His-tagged FGF21 0.5 mg/kg, SABA1-FGF21v1 0.08 mg/kg
Description: as §3
(§4) Following subcutaneous administration, His-tagged FGF21 was well absorbed.
(§5) Following subcutaneous administration, SABA1-FGF21v1 was well absorbed.

[5] = Pharmacokinetics of His-tagged FGF21 and SABA1-FGF21v1 in mice; type: in vivo, CD-1 mice; ob/ob mice; settings: for steady-state volume of distribution (Vss) / terminal half-life (T1/2) / total body plasma clearance (CLTp): CD-1 mice, intravenous, His-tagged FGF21 1 mg/kg, SABA1-FGF21v1 1.6 mg/kg
Description: as §3, §4, §5
SABA1-FGF21v1 was also administered to ob/ob mice at 1 mg/kg subcutaneously after pre-mix with human serum albumin (6 mg/kg).

[6] = cyno, SC, 0.08 mg/kg, N = 3, mean ± SD

Molecule	lowering of plasma glucose compared to the PBS vehicle control (diabetic ob/ob mice; 3 hours post dose)	Plasma Concentration [1]	Plasma Concentration (ng/ml) [1]	stimulation of pERK 1/2 levels in parental HEK cells [2]	Efficacy (%) ([3]; mean ± std. dev., N ≧4)	activity in HEK β-klotho stable cells (specificity experiment) [3]	CL (total body plasma clearance, CLTp) [4]	T½ (terminal half-life) [4]	Vdss (steady-state volume of distribution, Vss) [4]	absolute subcutaneous bioavailability [4]	apparent subcutaneous terminal half-life (T1/2) [4]	steady-state volume of distribution (Vss) [5]	terminal half-life (T1/2) [5]	total body plasma clearance (CLTp) [5]	apparent subcutaneous terminal half-life (T1/2) ([5]; mice, subcutaneous)	further results
His-tagged FGF21: non-fused His-tagged FGF21 (“FGFv1”; SEQ ID NO: 125) used as a comparator (protein, His6 tag) MHHHHHHPIPDSSPLLQFGGQVRQRYLYTDDAQQTEAHLEIREDGTVGGAADQSPESLLQLKALKPGVIQILGVKTSRFLCQRPDGALYGSLHFDPEACSFRELLLEDGYNVYQSEAHGLPLHLPGNKSPHRDPAPRGPARFLPLPGLPPALPEPPGILAPQPPDVGSSDPLSMVGPSQGRSPSYAS	comparable	99 ng/mL	<LLOQ	neither His-tagged FGF21 nor SABA1-FGF21v1 stimulated pERK 1/2 levels	100%	showed activity	6.4 mL/min/kg	1.9 h	1 L/kg	65%	4.3 h	0.27 L/kg	0.5 h	12 mL/min/kg	0.6 h	EC50 ([3]; pERK 1/2, in PBS with 3% human serum albumin, mean ± std. dev., N ≧4): 7 ± 4 nM; absolute subcutaneous bioavailability ([5]; mice, subcutaneous): ~100%
SABA1-FGF21v1: SABA1-FGF21 fusion, SEQ ID NO: 132; 293 aa; DNA SEQ ID NO: 184 (protein) MGVSDVPRDLEVVAATPTSLLISWHSYYEQNSYYRITYGETGGNSPVQEFTVPYSQTTATISGLKPGVDYTITVYAVYGSKYYYPISINYRTEIEKPSQGSGSGSGSGSGSGSPIPDSSPLLQFGGQVRQRYLYTDDAQQTEAHLEIREDGTVGGAADQSPESLLQLKALKPGVIQILGVKTSRFLCQRPDGALYGSLHFDPEACSFRELLLEDGYNVYQSEAHGLPLHLPGNKSPHRDPAPRGPARFLPLPGLPPALPEPPGILAPQPPDVGSSDPLSMVGPSQGRSPSYAS	29%	1370 ng/mL	<LLOQ	neither His-tagged FGF21 nor SABA1-FGF21v1 stimulated pERK 1/2 levels	62%	showed activity	0.012 mL/min/kg	97 h	0.08 L/kg	68%	67 h	0.12 L/kg	1.9 h	2.9 mL/min/kg	1.9 h	lowering of plasma glucose compared to the HSA control (diabetic ob/ob mice; 3 hours post dose, 1 mg/kg with human serum albumin 6 mg/kg, q.d. s.c.): 46%; magnitude of glucose lowering (diabetic ob/ob mice; 1.0 mg/kg s.c. daily, without HSA): 7%; magnitude of glucose lowering (diabetic ob/ob mice; 1 mg/kg with HSA 6 mg/kg): 41%; right shift of potency (EC50) relative to the His-tagged FGF21 [3]: approximately 15 fold; Efficacy (%) ([3]; mean ± std. dev., N ≧4, listed as SABAl-FGF21v1): 62 ± 9%; AUCtot ([4]; cyno, IV, 0.08 mg/kg, N = 2): 3.621 µM·h; CLTp ([4]; cyno, IV, 0.08 mg/kg, N = 2): 0.0118 mL/min/kg; T½ ([4]; cyno, IV, 0.08 mg/kg, N = 2): 97 h; Vss ([4]; cyno, IV, 0.08 mg/kg, N = 2): 0.076 L/kg; F (%) ([4]; cyno, SC, 0.08 mg/kg): 68%; AUCtot [4, 6]: 2.454 ± 0.779 µM·h; Cmax [4, 6]: 22.4 ± 10.8 nM; Tmax [4, 6]: 13 ± 9 h; apparent subcutaneous terminal half-life (T1/2) ([5]; ob/ob mice, 1 mg/kg subcutaneously after pre-mix with human serum albumin (6 mg/kg)): 9 h
